# Numbering of substitutions follows the chain as printed.
# B1: HuEM0005-87-7 (antibody, human IgG1, V domains shown)
# VH: EVQLVQSGAEVKKPGASVKVSCKASGYTFTDYYINWVRQAPGQGLEWMGETIPNTGGTTYNQKFKARVTLTVDTSTSTVYMELSSLRSEDTAVYYCARYQSGSPFAYWGQGTTVTVSS
# VL: EIVMTQSPATLSVSPGERATLSCKASQNVGTAVAWYQQKPGQAPRLLIYSASNRYTGIPARFSGSGSGTEFTLTISSLQSEDFAVYYCQQHYSTPYTFGGGTKLEIK
# B2: HuEM0005-87-8 (antibody, human IgG1, V domains shown)
# VH: B1 VH with M48I, T74K
# VL: B1 VL
# B3: HuEM0005-87-9 (antibody, human IgG1, V domains shown)
# VH: B1 VH with T28S, M48I, R67K, V68A, T74K, V79A
# VL: B1 VL
# B4: HuEM0005-87-10 (antibody, human IgG1, V domains shown)
# VH: B1 VH with T28S, R38K, M48I, R67K, V68A, V72R, T74K, V79A, S84K
# VL: B1 VL
# B5: HuEM0005-87-11 (antibody, human IgG1, V domains shown)
# VH: B1 VH with L70M
# VL: B1 VL with I58V
# notes: also called HuEM0005-87-l l
# B6: HuEM0005-87-12 (antibody, human IgG1, V domains shown)
# VH: B1 VH
# VL: B1 VL with I58V
# B7: HuEM0005-90-7 (antibody, human IgG1, V domains shown)
# VH: EVQLVQSGAEVKKPGASVKVSCKTSGYTFTSHSINWVRQATGQGLEWMGYMYIGNGYTEYNEKFKGRVTMTSNTSISTAYMELSSLRSEDTAVYYCAKITPVVAPYVMDYWGQGTSVTVSS
# VL: DIQMTQSPSFLSASVGDRVTITCKASQDVGTAVAWYQQKPGKAPKLLIYWASTRHTGVPSRFSGSGSGTEFTLTISSLQPEDFATYYCQQYSSYPYTFGQGTKLEIK
# B8: HuEM0005-90-8 (antibody, human IgG1, V domains shown)
# VH: B7 VH with M48I, V68A, M70L
# VL: B7 VL
# B9: HuEM0005-90-9 (antibody, human IgG1, V domains shown)
# VH: B7 VH with T24A, M70L
# VL: B7 VL with Q3V, E70D
# B10: HuEM0005-90-10 (antibody, human IgG1, V domains shown)
# VH: B7 VH with T24A, M48I, V68A, M70L
# VL: B7 VL with Q3V, E70D
# B11: HuEM0005-90-11 (antibody, human IgG1, V domains shown)
# VH: B7 VH
# VL: B7 VL with Q3V, E70D
# B12: HuEM0005-90-12 (antibody, human IgG1, V domains shown)
# VH: B7 VH with M48I, V68A, M70L
# VL: B7 VL with Q3V, E70D
# B13: HuEM0005-87-18 (antibody, human IgG1, V domains shown)
# VH: B1 VH with M48I, T74K
# VL: B1 VL with I58V, A60D, S63T
# B14: HuEM0005-87-13 (antibody, human IgG1, V domains shown)
# VH: B1 VH with M48I, T74K
# VL: B1 VL with I58V
# B15: HuEM0005-87-14 (antibody, human IgG1, V domains shown)
# VH: B1 VH with T28S, M48I, R67K, V68A, T74K, V79A
# VL: B1 VL with I58V
# B16: HuEM0005-87-15 (antibody, human IgG1, V domains shown)
# VH: B1 VH with T28S, R38K, M48I, R67K, V68A, V72R, T74K, V79A, S84K
# VL: B1 VL with I58V
# B17: HuEM0005-87-16 (antibody, human IgG1, V domains shown)
# VH: B1 VH with L70M
# VL: B1 VL with I58V, A60D, S63T
# B18: HuEM0005-87-17 (antibody, human IgG1, V domains shown)
# VH: B1 VH
# VL: B1 VL with I58V, A60D, S63T
# B19: HuEM0005-90-13 (antibody, human IgG1, V domains shown)
# VH: B7 VH with T24A, M70L
# VL: B7 VL with S60D, S63T
# B20: HuEM0005-90-14 (antibody, human IgG1, V domains shown)
# VH: B7 VH with T24A, M48I, V68A, M70L
# VL: B7 VL with S60D, S63T
# B21: HuEM0005-90-15 (antibody, human IgG1, V domains shown)
# VH: B7 VH
# VL: B7 VL with S60D, S63T
# B22: HuEM0005-90-16 (antibody, human IgG1, V domains shown)
# VH: B7 VH with M48I, V68A, M70L
# VL: B7 VL with S60D, S63T
# B23: HuEM0005-90-17 (antibody, human IgG1, V domains shown)
# VH: B7 VH with T24A, M70L
# VL: B7 VL with Q3V, S60D, S63T, E70D
# B24: HuEM0005-90-18 (antibody, human IgG1, V domains shown)
# VH: B7 VH with T24A, M48I, V68A, M70L
# VL: B7 VL with Q3V, S60D, S63T, E70D
# Target: T1, human PD-L1/His fusion protein (human, UniProt Q9NZQ7 19-239)
# T1 sequence (Q9NZQ7 19-239 limits assumed): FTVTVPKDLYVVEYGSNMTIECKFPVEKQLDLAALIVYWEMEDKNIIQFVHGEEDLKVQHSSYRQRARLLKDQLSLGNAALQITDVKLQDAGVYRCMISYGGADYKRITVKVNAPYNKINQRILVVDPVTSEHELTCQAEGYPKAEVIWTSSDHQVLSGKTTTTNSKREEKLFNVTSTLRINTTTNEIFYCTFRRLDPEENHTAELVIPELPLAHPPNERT
# Assay: BLI Octet RED96, antibody on AHC sensor, single conc. PD-L1/His; test group 2
# Experimental: (§1) Briefly, antibodies were characterized for affinities and binding kinetics by Octet®RED96 biolayer interferometry (Pall ForteBio LLC). Antibodies were captured by Anti-hIgG Fc Capture (AHC) Biosensors (Pall) at a concentration of 100 nM for 30 seconds. Sensors were then dipped into running buffer (1×pH 7.2 PBS, 0.05% Tween 20, 0.1% BSA) for 60 seconds to check baseline. Binding was measured by dipping sensors into a single concentration of recombinant human PD-L1/His fusion protein (Novoprotein). Dissociation was followed by dipping sensors into running buffer for 1200 seconds. The association and dissociation curves were fitted to a 1:1 Langmuir binding model using ForteBio Data Analysis software (Pall). […] The off-rate ratio serves as a data normalization. Accordingly, in each test group, the off-rate ratios of the humanized antibodies can be compared with that of the chimeric antibody, and the off-rate ratios of each of the humanized antibodies can be compared to one another within all test groups.
row,Binder,koff [s⁻¹]
1,B1,0.000709
2,B2,0.000844
3,B3,0.000878
4,B4,0.000994
5,B5,0.000769
6,B6,0.000798
7,B7,0.00046
8,B8,0.000349
9,B9,0.000373
10,B10,0.00031
11,B11,0.000414
12,B12,0.000342

# Target: T1, human PD-L1/His fusion protein
# Assay: BLI Octet RED96, antibody on AHC sensor, single conc. PD-L1/His; test group 3
# Experimental: as §1
row,Binder,koff [s⁻¹]
1,B13,0.00101
2,B14,0.001
3,B15,0.00108
4,B16,0.00129
5,B17,0.000932
6,B18,0.000888
7,B19,0.000439
8,B20,0.000376
9,B21,0.000499
10,B22,0.000387
11,B23,0.000405
12,B24,0.000334

# Target: T1, human PD-L1/His fusion protein
# Assay: BLI off-rate; test group 3
# Experimental: as §1
Binder,Off-Rate Ratio to that of EM0005-87c [%],Off-Rate Ratio to that of EM0005-90c [%]
B13,75,
B14,74,
B15,80,
B16,96,
B17,69,
B18,66,
B19,,115
B20,,98
B21,,131
B22,,101
B23,,106
B24,,87

# Target: T1, human PD-L1/His fusion protein
# Assay: BLI off-rate; test group 2
# Experimental: as §1
Binder,Off-Rate Ratio to that of EM0005-87c [%],Off-Rate Ratio to that of EM0005-90c [%]
B1,68,
B2,81,
B3,84,
B4,96,
B5,74,
B6,77,
B7,,135
B8,,102
B9,,109
B10,,91
B11,,121
B12,,100
